Several values for one entry are separate records, joined by “and”; a condition that tells them apart may be missing. Equal entries are not always repeated.
B1: 3C2 (parental mouse anti-human SIRPa monoclonal antibody) (antibody, V domains shown)
VH: QVQLQQPGAELVRPGSSVKLSCKASGYTFTSYWMHWVKQRPIQGLEWIGNIDPSDSDTHYNQKFKDKATLTVDKSSSTAYMQLSSLTSEDSAVYYCARGYSKYYAMDYWGQGTSVTVSS
VL: DVLMTQTPLSLSVSLGDQASISCRSSQSIVHSYGNTYLEWYLQKPGQSPKLLIYKVSNRFSGVPDRFSGSGSGTDFTLKISRVEAEDLGVYYCFQGSHVPYTFGGGTKLEIK
notes: Hybridoma-derived mouse antibody; also called mouse 3C2
B2: 1H9 (parental mouse anti-human SIRPa monoclonal antibody) (antibody, V domains shown)
VH: QVQLQQPGAERVKPGASVKMSCKASGYTFTSYWITWVKQRPGQGLEWIGDIYPGSGSTNHIEKFKSKATLTVDTSSNTAYMQLSRLTSEDSAVYYCATGYGSSYGYFDYWGQGTTLTVSS
VL: DIQMTQSPASLSASVGETVTITCRASENIYSYLAWYQQKQGKSPQLLVYTAKTLAEGVPSRFSGSGSGTQFSLKINSLQPEDFGNYYCQHQYGPPFTFGSGTRLVIK
notes: Hybridoma-derived mouse antibody; also called mouse 1H9
B3: Humanized 1H9 (antibody, human IgG1, kappa, N297A, V domains shown)
VH: QVQLVQSGAEVKKPGASVKVSCKASGYTFTSYWITWVKQAPGQGLEWIGDIYPGSGSTNHIEKFKSKATLTVDTSISTAYMELSRLRSDDTAVYYCATGYGSSYGYFDYWGQGTLVTVSS
VL: DIQMTQSPSSLSASVGDRVTITCRASENIYSYLAWYQQKPGKAPKLLIYTAKTLAEGVPSRFSGSGSGTDFTLTISSLQPEDFATYYCQHQYGPPFTFGQGTKLEIKR
notes: also called Hu1H9-G1; humanized 1H9-G1

Assays:
[1] = biological target: T1, human SIRPG-His fusion protein (human, UniProt Q9P1W8-2 29-327, limits assumed); assay: ELISA, binding to human SIRPG-His fusion protein
T1 construct: also called SIRP gamma; not shown: His tag
T1 sequence (Q9P1W8 62-360 limits assumed): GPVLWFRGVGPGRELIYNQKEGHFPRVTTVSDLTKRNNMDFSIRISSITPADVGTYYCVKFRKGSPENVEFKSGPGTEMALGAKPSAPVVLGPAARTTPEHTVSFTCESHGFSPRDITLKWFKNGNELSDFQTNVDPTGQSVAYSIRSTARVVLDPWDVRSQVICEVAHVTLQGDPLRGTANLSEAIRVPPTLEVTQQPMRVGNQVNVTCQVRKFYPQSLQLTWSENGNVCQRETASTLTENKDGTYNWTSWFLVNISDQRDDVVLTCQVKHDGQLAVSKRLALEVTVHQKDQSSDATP

[2] = biological target: T2, human SIRP-alpha V1/V5 (heterozygous) on monocytes and macrophages of V1/V5 donors (human); assay: flow cytometry on monocytes; blocking of AF488-conjugated human CD47-Fc binding
T2 construct: Not a complex: the two allelic forms carried together by the cells of heterozygous donors
T2 sequence (P78324 whole entry): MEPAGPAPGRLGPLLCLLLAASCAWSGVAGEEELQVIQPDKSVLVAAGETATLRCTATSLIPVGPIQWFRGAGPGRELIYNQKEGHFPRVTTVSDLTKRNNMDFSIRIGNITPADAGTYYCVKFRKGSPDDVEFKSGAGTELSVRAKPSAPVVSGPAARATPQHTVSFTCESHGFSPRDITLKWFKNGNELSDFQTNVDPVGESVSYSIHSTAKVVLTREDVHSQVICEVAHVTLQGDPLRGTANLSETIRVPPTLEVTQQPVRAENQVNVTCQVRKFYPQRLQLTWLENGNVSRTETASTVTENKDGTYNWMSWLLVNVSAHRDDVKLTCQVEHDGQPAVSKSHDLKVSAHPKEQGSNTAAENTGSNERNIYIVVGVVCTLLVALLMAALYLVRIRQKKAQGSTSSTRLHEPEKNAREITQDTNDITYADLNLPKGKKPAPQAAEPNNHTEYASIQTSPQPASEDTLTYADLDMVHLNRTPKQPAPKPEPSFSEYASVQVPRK
Protocol: (§1) Blocking human CD47 binding on monocytes isolated from human donors. Human peripheral blood mononuclear cells (PBMCs) were isolated from human blood using Ficoll. 5×10⁵ cells were incubated with 1 ug/ml of AF488-conjugated human CD47-Fc fusion protein in the absence or presence of increasing concentrations of hHu1H9-G1. Binding of CD47 on the cells was measured and analyzed by flow cytometry.

[3] = biological target: T3, human SIRP-alpha variant 2 (V2) on monocytes and macrophages of V2 homozygous donors (human, UniProt Q5TFQ8 30-145); assay: as above
T3 construct: the whole native protein stood on the cells; The definitions name GenBank CAA71403.1 for the V2 form (residues 30-504 mature); also called SIRPa V2
T3 sequence (Q5TFQ8 other isoform, or with tags, fused parts or gaps mutant): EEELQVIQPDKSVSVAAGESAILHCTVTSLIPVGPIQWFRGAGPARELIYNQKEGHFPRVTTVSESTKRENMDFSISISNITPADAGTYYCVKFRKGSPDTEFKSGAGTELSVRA
Protocol: as §1

[4] = biological target: T4, human SIRP-alpha variant 1 (V1) on monocytes and macrophages of V1 homozygous donors (human, UniProt P78324 31-146); assay: as above
T4 construct: the whole native protein stood on the cells; also called SIRPa V1
T4 sequence (P78324 31-146, change not shown): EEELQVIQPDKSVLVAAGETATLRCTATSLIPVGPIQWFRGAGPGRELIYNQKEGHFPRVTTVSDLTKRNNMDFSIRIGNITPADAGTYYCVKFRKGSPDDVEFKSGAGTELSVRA
Protocol: as §1

Binder	binding result [1]	IC50 (read off the curve) [2]	IC50 (read off the curve) [3]	IC50 (read off the curve) [4]
B1	no binding (tested: about 3000 ng/mL)			
B2	no binding (tested: about 3000 ng/mL)			
B3		~3 µg/mL	~20 µg/mL	~8 µg/mL and ~4 µg/mL
